Assay results from article PMC11749891 (Nature structural & molecular biology, 2022).
One block for each binder: values may come before it. * marks the point of attachment. Biotin = O=C1N[C@H]2[C@H](CS[C@H]2CCCCC(=O)*)N1; Ahx = NCCCCCC(=O)O

Experiments:
[1] = biological target: T1, Recombinant GFP-tagged Sov core NTD (aa 14–90), NTD Δ-SIMs (D. melanogaster, UniProt Q9W3W6 14-90); experiment: pull-down
T1 sequence (looked up): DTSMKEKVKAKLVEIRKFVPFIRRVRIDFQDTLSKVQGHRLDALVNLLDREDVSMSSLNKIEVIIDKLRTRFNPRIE

[2] = biological target: T2, C-terminal His tagged Sov NTD (aa 14–90) (D. melanogaster, UniProt Q9W3W6 14-90); experiment: ITC
T2 sequence (looked up): T1 sequence (looked up)

binding result [1]: binds
B1: Panx LxxLL peptide (aa 82–108), wildtype, biotinylated (peptide, UniProt Q9W2H9 82-108, looked up)
peptide: {Biotin-Ahx}-KMEPKIKEDADNAMLDSLLADPFENNS-NH2
SMILES: CC[C@H](C)[C@H](NC(=O)[C@H](CCCCN)NC(=O)[C@@H]1CCCN1C(=O)[C@H](CCC(=O)O)NC(=O)[C@H](CCSC)NC(=O)[C@H](CCCCN)NC(=O)CCCCCNC(=O)CCCC[C@@H]1SC[C@@H]2NC(=O)N[C@@H]21)C(=O)N[C@@H](CCCCN)C(=O)N[C@@H](CCC(=O)O)C(=O)N[C@@H](CC(=O)O)C(=O)N[C@@H](C)C(=O)N[C@@H](CC(=O)O)C(=O)N[C@@H](CC(N)=O)C(=O)N[C@@H](C)C(=O)N[C@@H](CCSC)C(=O)N[C@@H](CC(C)C)C(=O)N[C@@H](CC(=O)O)C(=O)N[C@@H](CO)C(=O)N[C@@H](CC(C)C)C(=O)N[C@@H](CC(C)C)C(=O)N[C@@H](C)C(=O)N[C@@H](CC(=O)O)C(=O)N1CCC[C@H]1C(=O)N[C@@H](Cc1ccccc1)C(=O)N[C@@H](CCC(=O)O)C(=O)N[C@@H](CC(N)=O)C(=O)N[C@@H](CC(N)=O)C(=O)N[C@@H](CO)C(N)=O

stoichiometry N [2]: 1.05 ± 0.03
Binder: KMEPKIKEDADNAMLDSLLADPFENNS (peptide, UniProt Q9W2H9 82-108, looked up) [His-SUMO tagged Panx LxxLL peptide (aa 82–108), wildtype]
